Source: patent US10287317B2, “Proprotein convertase subtilisin kexin type 9 (PCSK9) allosteric binding ligands to modulate serum low density lipoprotein (LDL) levels” (SRX Cardio, LLC, priority 2013, dated 2019)
Where no end group is shown, it is not given here.

Target: T1, PCSK9-WT protein (Homo sapiens, UniProt Q8NBP7)
T1 construct: V5
Experiment: FACS analysis of cell surface LDLR in HuH7 cells with PCSK9-WT
Assay type: cell-based
Description: HuH7 cells were incubated for 18 h in the absence (Cnt) or presence of 0.75 μg/ml PCSK9-WT protein alone (WT) or mixed with 100 μM of various SRX peptides. The level of LDLR at the cell surface was measured by FACS using anti human LDLR Ab and a suitable secondary Ab labeled with Alexa 647. Cell surface LDLR is reported relative to Cnt. % inhibition of activity was calculated as [SRX−WT]/[Cnt−WT]×100%.
See, FIG. 1. In that experiment, the LDLR levels of a hepatocyte culture model (HuH7 cells) were measured by fluorescence activated cell sorting (FACS) in accordance with Example III. Cell surface LDLR is reported as a percentage of Basal levels of LDLR, indicated by the Cnt_Amm.Bic, Cnt_Ac.Acid, and Cnt bars in the top graph. See, FIG. 1 (top panel). LDLR levels in the presence of exogenous PCSK9 is indicated as WT_Amm.Bic, WT-Ac.Acid, and WT, and Exogenous PCSK9 in combination with a tested peptide is indicated as SRX##. The measured LDLR levels are reported as % versus basal controls (Cnt) of the respective group. […] This was further shown a percent inhibition (% inhibition was calculated as [SRX−WT]/[Cnt−WT]×100%) where positive modulation (increase) of LDLR level is reported as positive % inhibition, and negative modulation (decrease) of LDLR level is reported as negative % inhibition. See, FIG. 1 (bottom panel).
Benjannet et al., “Effects of the prosegment and pH on the activity of PCSK9: evidence for additional processing events” J Biol Chem. 285(52): 40965-40978 (2010). The cells were then washed 3× with solution A (calcium/magnesium-free Dulbecco's PBS (Invitrogen) containing 0.5% bovine serum albumin (Sigma) and 1 g/liter glucose)). The cells were then incubated for 10 min at room temperature with 1× Versene solution (Invitrogen) followed by the addition of 5 ml of solution A. The cells were then incubated for 40 min in solution A containing a human LDLR mAb-C7 (1:100; Santa Cruz Biotechnology). Following washes, the cells were then incubated for 20 min in solution A containing a secondary antibody (Alexa Fluor 647 donkey anti-mouse antibody; 1:250; Molecular Probes).
Following suspension in PBS containing 0.2% of propidium iodide, the cells were analyzed by FACS for both propidium iodide (dead cells) and LDLR in live cells with Alexa Fluor 647 using the FACS BD LSR (BD Biosciences).

T1 sequence (Q8NBP7 153-692): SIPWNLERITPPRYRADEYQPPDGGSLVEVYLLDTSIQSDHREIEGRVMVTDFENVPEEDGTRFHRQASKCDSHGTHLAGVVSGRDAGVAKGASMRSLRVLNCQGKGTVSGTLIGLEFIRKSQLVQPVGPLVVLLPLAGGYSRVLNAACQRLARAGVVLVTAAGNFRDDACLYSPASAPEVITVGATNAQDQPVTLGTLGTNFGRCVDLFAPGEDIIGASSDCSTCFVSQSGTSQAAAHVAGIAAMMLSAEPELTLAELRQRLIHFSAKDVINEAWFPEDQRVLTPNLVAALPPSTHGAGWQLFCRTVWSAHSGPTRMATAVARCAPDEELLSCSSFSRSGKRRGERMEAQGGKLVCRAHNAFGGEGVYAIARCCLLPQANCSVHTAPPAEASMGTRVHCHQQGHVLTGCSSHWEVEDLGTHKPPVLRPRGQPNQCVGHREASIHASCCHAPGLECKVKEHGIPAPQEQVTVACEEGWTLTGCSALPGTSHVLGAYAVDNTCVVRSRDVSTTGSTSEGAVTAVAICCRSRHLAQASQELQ

Val-Tyr-Val-Arg-Phe-Trp (VYVRFW; not fully specified (C-terminus); printed as Val-Tyr-Val-Arg-Phe-Trp) [Compound 1]
modulation of LDLR cell surface level (HuH7 cells, FACS, exogenous WT PCSK9 plus peptide (FIG. 1, 100 μM)): positively modulate (increase) | increase of cell surface expression of LDL-R (WT PCSK9, FACS in HuH7 cells): 100%
